{
  "source": "paper doi:10.1101/2025.01.09.632101",
  "target": "DPEP1-Avi: porcine DPEP1 ectodomain (residues 17-385) with Strep and Avi tags, biotinylated (porcine (Sus scrofa)) (UniProt P22412)",
  "sequence (P22412 17-385)": "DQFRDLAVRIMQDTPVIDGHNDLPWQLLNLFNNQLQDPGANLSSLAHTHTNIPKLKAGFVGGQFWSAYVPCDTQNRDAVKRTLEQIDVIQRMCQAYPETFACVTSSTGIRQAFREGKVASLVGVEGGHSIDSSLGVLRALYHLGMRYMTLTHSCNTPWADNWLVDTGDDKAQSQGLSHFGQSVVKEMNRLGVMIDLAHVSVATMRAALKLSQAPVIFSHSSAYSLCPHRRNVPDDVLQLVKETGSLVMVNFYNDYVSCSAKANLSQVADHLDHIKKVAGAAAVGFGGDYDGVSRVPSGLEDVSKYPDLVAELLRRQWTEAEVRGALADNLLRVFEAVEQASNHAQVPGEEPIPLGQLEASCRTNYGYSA",
  "assay": "BLI",
  "data": [
    {"substance": "PHEV spike RBD (residues 327-605), from Expi293F cells, with His, Strep and Avi tags (domain or fragment)", "values": [
      {"measurement": "Kd", "value": 1500, "unit": "nM"}
    ]}
  ]
}
